Legend:
[1] = target: T1, human alpha-synuclein protein, monomeric (human, UniProt P37840 1-140); test: SPR (Biacore), full-cycle kinetics: IgG captured on anti-human Fc CM5 chip, alpha-synuclein monomer injected, 1:1 Langmuir fit
[2] = target: T1, human alpha-synuclein protein, monomeric; test: SPR (Biacore)
[3] = target: T1, human alpha-synuclein protein, monomeric; test: SPR (Biacore), single-cycle kinetics, alpha-synuclein monomer
[4] = target: human alpha-synuclein protein (full-length; monomer/oligomer form not specified at the place) (human, UniProt P37840 1-140); test: SPR (Biacore T200), protein captured by anti-human-Fc on a CM5 chip, recombinant alpha-synuclein injected (Table 14)

| Binder | Kd [1] [nM] | koff [1] [s⁻¹] | kon [1] [M⁻¹ s⁻¹] | also measured |
| --- | --- | --- | --- | --- |
| Clone 2F10 (antibody, human IgG1, V domains shown, Biacore: mouse variable regions with human IgG1 and kappa constant regions; A mouse IgG version was also used elsewhere) VH: EVKLQESGPGLVKPSQSLSLTCSVTGYSITSGYYWNWIRQFPGNKLEWLGYISDDGRNNYNPSLKNRISITRDTSKNQLFLKLNSVTTEDTATYYCVRGDYGPWGQGTTVTVSS VL: DVVMTQTPLTLSVTIGQPAFISCKSNQSLLDYDGETYLNWLFLRPGQSPKRLIYLVSKQDSGVPDRFTGIGSGTDFTLKINRVEAEDLGIYYCWQGTHFPQTFGGGTKLELK | 6.7 | 0.00067 | 100000 |  |
| Clone 2D02 (antibody, V domains shown, Biacore: mouse variable regions with human IgG1 and kappa constant regions) VH: EVKLQESGPGLVKPSQSLSLTCSVTGYSITSGYYWNWIRQFPGNKLEWLGFISSDGNSDYNPSLKNRISVTRDTSKNQFFLQLNSVTTEDTATYYCLRGDVDWGQGTTLTVSS VL: not shown | 6.38 | 0.0003 | 47000 |  |
| Clone 1F06 (antibody, V domains shown, also called antibody 1F06) VH: EVKLVESGGGLVKPGGSLKLSCAASGFIFSDYGMHWVRQAPEKGLEWIAFISSGNNTVYYADTVKGRFTISRDSAKKTLFLQMTSLRSEDTAMYYCVRHSNFCDYWGQGTSVTVSS VL: DVQMTQTPLSLPVSLGDQASISCRSSQSIVHSNGNTYLEWYLQKPGQSPKLLIYKVSNRFSGVPDRFSGSGSGTDFTLKISRVEAEDLGVYYCFQGSHVPPTFGAGTKLELK |  |  |  | binding result [2]: binds |
| Clone 1F06 C99M (antibody, human IgG1, V domains shown, Human IgG1/kappa chimeric format like 1F06; C99 (Kabat, CDR-H3) is replaced by Met; also called 1F06 C99M variant; C99M variant of 1F06) VH: EVKLVESGGGLVKPGGSLKLSCAASGFIFSDYGMHWVRQAPEKGLEWIAFISSGNNTVYYADTVKGRFTISRDSAKKTLFLQMTSLRSEDTAMYYCVRHSNFMDYWGQGTSVTVSS VL: DVQMTQTPLSLPVSLGDQASISCRSSQSIVHSNGNTYLEWYLQKPGQSPKLLIYKVSNRFSGVPDRFSGSGSGTDFTLKISRVEAEDLGVYYCFQGSHVPPTFGAGTKLELK |  |  |  | binding result [3]: binds |
| Clone 3C02 (antibody, human IgG1, V domains shown, Mouse variable regions with human IgG1 and kappa constant regions) VH: EVKLLESGGGLVQPGGSLKLSCAASGFTFSDYGMHWVRQAPEKGLEWIAYISRGSSAIYYADAVKGRFTISRDNAKNTLFLQMTSLRSEDTAMYYCRSPLRYFDVWGTGTSVTVSS VL: not shown | 29.3 | 0.0012 | 41000 |  |
| 2F09/35.21.17.2 (bispecific antibody, human IgG1, kappa, Knob:hole:light chain were co-transfected 1:1:2) heavy 1: EVHVKQSGPELVEPGASVKISCKTSGYTFASYAISWVKQRTGQGLEWIGEIYPGSGDTYYDEKFKGKATLTADKSSSTAYMELRSLTSEDSAVYFCASDYDAYWGQGTLVTVSAASTKGPSVFPLAPSSKSTSGGTAALGCLVKDYFPEPVTVSWNSGALTSGVHTFPAVLQSSGLYSLSSVVTVPSSSLGTQTYICNVNHKPSNTKVDKKVEPKSCDKTHTCPPCPAPELLGGPSVFLFPPKPKDTLMISRTPEVTCVVVDVSHEDPEVKFNWYVDGVEVHNAKTKPREEQYNSTYRVVSVLTVLHQDWLNGKEYKCKVSNKALPAPIEKTISKAKGQPREPQVYTLPPSRDELTKNQVSLWCLVKGFYPSDIAVLWESYGTEWASYKTTPPVLDSDGSFFLYSKLTVTKEEWQQGFVFSCSVMHEALHNHYTQKSLSLSPGK heavy 2: not shown light: DIVLTQTPLSLPVSLGDQASISCRSSQSLVHRNGNTYLHWYLQKPGQSPKLLIYRISNRFSGVPDRFSGSGSGTDFTLKISRVEAEDLGVYFCSQSTHVPLTFGAGTKLEIKRTVAAPSVFIFPPSDEQLKSGTASVVCLLNNFYPREAKVQWKVDNALQSGNSQESVTEQDSKDSTYSLSSTLTLSKADYEKHKVYACEVTHQGLSSPVTKSFNRGEC |  |  |  | binding result [4]: binds |
| 1F4/35.21.17.2 (bispecific antibody, human IgG1, kappa) heavy 1: EVQLVESGGGLVQPKGSLKLSCAASGFSFNTYAMNWVRQAPGKGLEWVARIRTKSNNYATYYADSVKDRFTISRDDSESKFHLQMNNLKTEDTAIYYCVRQGIDFYAMDYWGQGTSVTVSSASTKGPSVFPLAPSSKSTSGGTAALGCLVKDYFPEPVTVSWNSGALTSGVHTFPAVLQSSGLYSLSSVVTVPSSSLGTQTYICNVNHKPSNTKVDKKVEPKSCDKTHTCPPCPAPELLGGPSVFLFPPKPKDTLMISRTPEVTCVVVDVSHEDPEVKFNWYVDGVEVHNAKTKPREEQYNSTYRVVSVLTVLHQDWLNGKEYKCKVSNKALPAPIEKTISKAKGQPREPQVYTLPPSRDELTKNQVSLWCLVKGFYPSDIAVLWESYGTEWASYKTTPPVLDSDGSFFLYSKLTVTKEEWQQGFVFSCSVMHEALHNHYTQKSLSLSPGK heavy 2: not shown light: DVLMTQSPLSLSVSLGDQASISCRSSRDIVHSNGNTYLEWYLQKPGQSPKLLIYKVSNRFSGVPDRFSGSGSGTDFTLKISRVEAEDLGVYYCFQGTLIPLTFGAGTKLELKRTVAAPSVFIFPPSDEQLKSGTASVVCLLNNFYPREAKVQWKVDNALQSGNSQESVTEQDSKDSTYSLSSTLTLSKADYEKHKVYACEVTHQGLSSPVTKSFNRGEC |  |  |  | binding result [4]: binds |
| Clone 2F09 (antibody, V domains shown, Mouse variable regions with human IgG1 and kappa constant regions) VH: EVHVKQSGPELVEPGASVKISCKTSGYTFASYAISWVKQRTGQGLEWIGEIYPGSGDTYYDEKFKGKATLTADKSSSTAYMELRSLTSEDSAVYFCASDYDAYWGQGTLVTVSA VL: DIVLTQTPLSLPVSLGDQASISCRSSQSLVHRNGNTYLHWYLQKPGQSPKLLIYRISNRFSGVPDRFSGSGSGTDFTLKISRVEAEDLGVYFCSQSTHVPLTFGAGTKLEIK | 1.63 | 0.0015 | 920000 |  |
